Experiment: yeast display, Sf9 membrane polyspecificity reagent, FACS + sequencing; frameworks hold sequencing errors
In short: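 Galactose induction of a Saccharomyces cerevisiae BJ5465 synthetic nanobody display library ran 36–48 hours. The cells were then stained for 1 hour at 4 °C with 10% biotinylated, detergent-solubilized Sf9 membrane reagent, pulled down on streptavidin microbeads and FACS-sorted into low and high (top ~1%) gates on expression and reagent-binding fluorescence. Labels for polyreactivity follow the gate of origin.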
In the case of “QVQLVESGGGLVQAGGSLRLSCAASGITFRGYAMGWYRQAPGTERELVAAITGSGTSTYADSVKGRFTISRDNAKNTVYLQMNILKPEDTAVYYCAADTYDPFYYGYGYWGQGTQVTVSS”, the “polyreactivity (PSR sort gate)” value is reported as “low polyreactivity”.
With “QLQLVESGGGLVQAGGSLRLSCAASGSIFYQYVMGWYRQAPGKEREFVAAIRYTGVGTYYADSVKGRFTLSRDNAKYTVYLQMNSLKPEDTAVYYCAARSYNRRARYDYWGQGTQVNVSS” the “polyreactivity (PSR sort gate)” value was “high polyreactivity”.
For “QVQLVESGGGLVQAGGSLRLSCAASGRTFLVYALGWYRQAPGKERELVAGITSGGGTYYADSVKGRFTISRDNAMNTVYLQINSLKPEETAVYYCAKYRWYGVYWGQVTQVTVSS”, the “polyreactivity (PSR sort gate)” value was “low polyreactivity”.
With “QDQLVESGGGLVQAGGSLRLSCAASGFTFTWNAMGWYRQAPGKERELVAGITRGGSTNYADSVKGRFTISRDNAKNTVYLQMNSLKPEDTAVYYCNVSFYFHHAGYDYWGQGTQVTVSS” the “polyreactivity (PSR sort gate)” value was “low polyreactivity”.
With “QDQLVESGGGLVQAGGSLRLSCAASGSTFSYYAMGWYRQATGKERELVASISTRGGSTYYADSVKGRFTISRDNAKNTVYLQMNSLKPEDTAVYYCAATIRPRGVARVDYWGQGTQVTVSS” the “polyreactivity (PSR sort gate)” value was “high polyreactivity”.
In the case of “QVQLHESVGGLVQAGVSLRLSCEASGTNFTARFIGWYRQAPGKERELVATITDGCYTNHADSVNGRFTISRDNAKNTVYLTMNSLKPEVAAVYYCAAGDVDNDTLMYWGQGSQVTVSS”, the “polyreactivity (PSR sort gate)” value is reported as “low polyreactivity”.
In the case of “QVQLVESGGGLVQAGGSLRLTCAASGSTFRWYAMGWYRPAPGKERELVAVITSGASTNYADSVKGRFTISRDNAKNTVYLQMNSLKPEDTAVYYCNRVPYFRWKYGYWGQGTQVTVSS”, the “polyreactivity (PSR sort gate)” value is reported as “high polyreactivity”.
For “QVQLVESGGGLVQAGGSLRLSCAASGRIFVPYAMGWYRQAPGKERELVAVISRGGSTYYADSVKGRFTISRDNAKNTVYLQMNSLKPEDTAVYYCAARGVNRQGFNYWGQGTQVTVSS”, the “polyreactivity (PSR sort gate)” value was “high polyreactivity”.
With “QVQLVESGGGLVQAAGSLRISCAASGRTFATNAMGWYRQAPGKERELVAVISASGGSTYYADSVKGRFTISRDNAKNTVYLQMNSLKPEDTAVYYCAADVYRRYDYWGQGTQVTVSS” the “polyreactivity (PSR sort gate)” value was “high polyreactivity”.
In the case of “QVQLVESGGGLVQAGGSIRLSCAASGYSFNGYAMGWYRQAPGKEREFVAAISWSGGSTYYADSVKGRFTISRDNAKNTVYLQMNSLKPEDTAVYYCAKRRGGGYDYWGQGTQVTVSS”, the “polyreactivity (PSR sort gate)” value is reported as “low polyreactivity”.
For “QVQLVESGGGLVQAGGRLRLSCAASGRIFPWYAMGWSRPAPGKERELVAAISWSGGRTYYADSVKGRFTISRDNAKNTVYLQMNSLKPEDTAVDYCNADKWRYPLSGWWKRYDYWGQGTQVTVSS”, the “polyreactivity (PSR sort gate)” value was “high polyreactivity”.
With “QVQLVESGGGLVQAGGSLRLSCAASGSTFKPYTMGWYRQAPGKERELVAGISSVDSTYYADSVKGRFTISRDNAKNTVYLQMNSLKPEDTAVYYCNKRKWPTFTYAMNYWGQGTQVTVSS” the “polyreactivity (PSR sort gate)” value was “low polyreactivity”.
With “QVQLVYSGGGLVQAGGSLRLSCAASGIIFGVNAMGWYRQAPGKERELVAAISSSGGSTYYADSVKGRFTISRDNAKNTVYLQMNSLKPEDTAVYYCAASYYHYAPFDYWGQGTQVTVSS” the “polyreactivity (PSR sort gate)” value was “high polyreactivity”.
In the case of “QVQLVESGGGLVQAGGSLRLSCAASGSTFKPYTMGWYRQAPGKERELVAGISSVDSTYYADSVKGRFTISRDNAKNTVYLQMNSLKPEDTAVYYCAADTVYIFSSAINGEFGYWGQGTQVTVSS”, the “polyreactivity (PSR sort gate)” value is reported as “low polyreactivity”.
With “QVQLVESGGGLVQAGGSLRLSCAASGSIAGNAMGWYRQAPGKERELVAAITFRGSGTYYADSVKGRFTISRDNAKNTVYLQMNSLKPEDTAVDYCNAYRRGLSVYGYWGQGTQVTVSS” the “polyreactivity (PSR sort gate)” value was “high polyreactivity”.
For “QVQLVESGGGLVQAGGSLRLSCASSGLIFWKYAMVWYRQAPGKERELVAAIRKSVGSTYYADSVKGRFTISRDNAKNTVFLQMNSLKPEDTAVYFCAAVYAGVGSQVKPDYCGQGTQVTVSS”, the “polyreactivity (PSR sort gate)” value was “high polyreactivity”.
With “QVQLVESGGGLVQAGGSLRLSCAASGRIFYNNVMGWYRQAPGKERELVAAISGNGGSTYYADSVKGRFTISRDNAKNTVYLQMNSLKPEDTAVYYCAKGSHSYLISTGDYWGQGTQVTVSS” the “polyreactivity (PSR sort gate)” value was “low polyreactivity”.
With “QVQLVESGGGLVQAGGSLRLSCAASGLTFYHYAMGWYRQAPGKERELVADISSGGSTSYADSVKGRFTISRDNAKNTVYLQMNSLKPEDTAVFYCAADYTWERYHRQIFRLDYWGQGTQVTVSS” the “polyreactivity (PSR sort gate)” value was “low polyreactivity”.
With “QVQLVESGARLVQAGGSLRLSCAASAYTLVGYAMGWYRQEPGKERELVADINFSGGRTYYADSVKGRFTISRDNAKNNVYLQMNSLKPEDTAVYYCNAAGALSWFYYGYDYWGQGTQVTLSS” the “polyreactivity (PSR sort gate)” value was “low polyreactivity”.
For “QVHLVESGGGLVQAGGSLRLRCAASGSIFLLYAMGWYRQPPGKGRELVAAITYSGGRTYADSVKGRFTISRDNAKNTGYLQMISLKPEDTAVNYCATDAPAPKYDYWGQGTQVTVSS”, the “polyreactivity (PSR sort gate)” value was “low polyreactivity”.
For “PVQLVESGGGLVQAGGSLRLSWAASGRIFVVNAMGWYRQAPGKEREFLASITRGASTYADSVKGRFTISRDNAKNTVYLQMNSLKPEDTAVYYCSDAKRPQVVRYDWTKLEYWGQGTQVTVSS”, the “polyreactivity (PSR sort gate)” value was “high polyreactivity”.
In the case of “QVQLVESGGGLVQAGGSLRLSCASSGFTFGYYTKGWYRQAPGKERELVAAITSGGGTYYADSVKGRFTISRDNAKNTVYLQMKSLKPEDTAVYYCATTPGLYKVSSRYGYWGQGTQVTVSS”, the “polyreactivity (PSR sort gate)” value is reported as “high polyreactivity”.
With “QVQLVESGGGLVQAGGSLRLSCAASGSTFSYYTMPWYRQAPGKERELVAAISRSGANTHYADSVKGRFTISRDNAKITVYLQMNSMKPEDTAVYYCAKVHSGRHYDYWGQGTQVTVSS” the “polyreactivity (PSR sort gate)” value was “high polyreactivity”.
In the case of “QVQLVESGGGLVQAGGSLRLSCAASGSIFYYNAMGWYIQAPGKERELVAAIRSTGSTNYADSVKGRFTISRDNAKNTVYLQMNSLKPEDTAVYYCNADYIFWLTLFDYWGQGTQVTVSS”, the “polyreactivity (PSR sort gate)” value is reported as “low polyreactivity”.
With “QVQLVESGGGLDPAGGSLRLSCAASGITFSYYAMGWYRQAPGKERELVAAISSSGSTYYADSVKGRFTISRDNAKNTDYLQMNSLKPEDTAVYYCAAEIRYYEYDYWGQGTQVTVSS” the “polyreactivity (PSR sort gate)” value was “low polyreactivity”.
In the case of “QVQLVESGGGLVQAGGSLRLSCAASGRTFSLNTMGWYRQAPGTERELVATISYSGDRTYYADSVKGRFTISRDNAKNTVYLQMNSLKPEETAVYYCAAQYWGRSYAGRYDYWGQGTQVTVSS”, the “polyreactivity (PSR sort gate)” value is reported as “high polyreactivity”.
For “QVHLVESGGGLVQAGGSLRLSCAASGSTFYAYTMGWYRQAPGKERELVAAISSRGGRTYYADSVKGRFTISRDNAKNTVYLQMNSLKPEDTAVYYCARTSWSGVSYDYWGQGTQVTVSS”, the “polyreactivity (PSR sort gate)” value was “high polyreactivity”.
With “QFQRVESGGGLVQAGGSLRLSSAASASIFSVYTMGWSRQAPGKERELDAAISTGGGSKYYADSVKGRFTISRDNAKNTVYLQMKSLKPEDTSVYYCGTDYGWPPSYWYDSFGQGTQVTVSS” the “polyreactivity (PSR sort gate)” value was “low polyreactivity”.
For “QVQLVESGGGLVQAGGSLRLSCAASGRTFRWYAMGWYRQAPGKESELVASISRGGSTSYADSVKGRFTISRDNAKNTVYLQMNSLKPEDTAVYYCAAGGFARTISYYWGQGTQVTVSS”, the “polyreactivity (PSR sort gate)” value was “high polyreactivity”.
For “QDQLVESGGGLVQAGGSLRLSCAASGIIFDVYAMGWYRPAPWNERELVAGITIGDITYYADSVKGRFTISRDNAKNTVYLQMNSLKPEDTAVYYCAADSYYYQTAYDYWGQGTQVTVSS”, the “polyreactivity (PSR sort gate)” value was “low polyreactivity”.
With “QVQLVESGGGLVQAGGSLRLSCAASGSILDHYAMGRYRQAPGKEREFVAAISIRGGSTYYADSVKGRFTISRDNEKNTVYLHMNSLKPEDTAVYYCNALSNYVYRRNDYGGQGTQVTVSS” the “polyreactivity (PSR sort gate)” value was “low polyreactivity”.
In the case of “QVQLVESGGGLVQAGGSLRLSCAASGRIFTTYALGWYRQAPGKERELVATITSGGDTSYADSVKGRFTISRDNAKNTVYLQMNSLKPEDTAVYYCNVGASLDQCSIPFEGYYYWGQGTQVTVSS”, the “polyreactivity (PSR sort gate)” value is reported as “low polyreactivity”.
In the case of “QVQLVESGGGLVQAGGSRRLSCAASGLIFDKAMGWYRQAPGKQREFVAAITYSTGSTYYADSVKGRFTISRDNAKNTVYLQMNSLKPEDTAVYYCAKDGSGHGTERDYWGQGTQVTVSS”, the “polyreactivity (PSR sort gate)” value is reported as “low polyreactivity”.
In the case of “QVQLVDSGGGLVQAGGSLRLSCPASGGIFGEYAMGWYRPAPGKEMELVAAINWSGGSTYYADSVKGRFTISRDNAKNTVYLQMNSLKPEDTAVYYCAADRGYPGNVDYWGQGSQVTVSS”, the “polyreactivity (PSR sort gate)” value is reported as “low polyreactivity”.
For “QVQLEESGGGIVQAGGSLRLSCAASGSTFVLYAMGWYRPAPGKERELVAAITSGGSTYYADSVKGRFTISRDNAKNTVYLQMNSLKPEDTAVYYCAASYWDTEPGYREYDYWGQGTQVTVSS”, the “polyreactivity (PSR sort gate)” value was “low polyreactivity”.
With “QVQLVESGGGLVQAGGSLRLSCAASGRTFVVYAMGWYRQAPGKERELVAAISYSGGSTYYADSVKGRFTISRDNAKNTVYLQMNSLKPEDTAVYYCAAVHLGYYHIYGLGYWGQGTQVTVSS” the “polyreactivity (PSR sort gate)” value was “high polyreactivity”.
In the case of “QLQLVESGGGLDQAGGSLRLSCAASRYTMGWYRQAPGKEMELVPAITGGGSTNYADSVKGRFTISRDNAKNTVYLHMNSLKPEDTAVYYCAVDYAVSYAGWVLRYDYWGQGTQVTVSS”, the “polyreactivity (PSR sort gate)” value is reported as “low polyreactivity”.
For “QVQLVESGGGLVQAGGSLRLSCAASGNTFGWNAMGWSRQAPGKERELVAAIDIGADTNYADSVKGRFTISRDNAKNTVYLQMNSLKPEDTAVYYCAASYRYVRWKWGYNYWGQGTQVTVSS”, the “polyreactivity (PSR sort gate)” value was “high polyreactivity”.
In the case of “QVQLVESVGGLVQAGGSLRLSCAASGSNFGSYAMGWYRQAPGKERSTYYADSVKGRFTISRDNAKNTVYLQMNSLKPEDTAVYYCAADTYGYQGSAGGHWGQGTQVTVSS”, the “polyreactivity (PSR sort gate)” value is reported as “low polyreactivity”.
With “QVQLVESGGGLVQAGGSLRLSCAASGGTFVFYAMGWYIQAPGKERELVAAISSAGRTYYADAVKGRFTISRDNAKTTVYLQMNSLKPEETAVYYCAAVSSQYDGRYYYWGQGTQVTVSS” the “polyreactivity (PSR sort gate)” value was “high polyreactivity”.
With “QVQLLESGGGLVQAGGSLRLSCAASGRTLDRNAMGWYRQAPGKERELVAAISRRTGSTYYADSVKGRFTISRDNAKNTVYLQMNSLKPEDTAVYYCNKVTYGDFDYWGQGTQVTVSS” the “polyreactivity (PSR sort gate)” value was “high polyreactivity”.
With “QVQLVESGGGLVQAGGSLRLSCAASGITFVLYAMGWYRQAPGKEREFVAAITNSGGSTYYADSVKGRFTISRDNAKNTVYLQMNSLKPEDTAVYYCAATRRRYRPYEYWGQGTQVTVSS” the “polyreactivity (PSR sort gate)” value was “high polyreactivity”.
With “QGQLVESGGALVQAGGSLRLSCAASGRILRYYAMGWNRQAPGKERELVAVITSSDGSTYYADSVKGRFTISRDNAKNTVYLQQNSLKPEDTAVDYCAAAPLWRVASWWDPYRRYDYWGQGTQVTVSS” the “polyreactivity (PSR sort gate)” value was “low polyreactivity”.

Reference: the nanobody polyreactivity screen of Harvey et al. (2022)
